In US8016811B2, “Method for transdermal delivery of permeant substances” (priority 2003, dated 2011):

Test: Serum insulin concentration profile in hairless rats after transdermal patch over micropores or subcutaneous dosing
Format: in vivo
Excerpt: This example illustrates the ability of the microporation system to mimic the delivery of a subcutaneous infusion of insulin. Hairless rats were purchased and dosed with insulin in accordance with the terms set forth below. The insulin concentration within the serum of the rats was then monitored at given time intervals to provide a blood serum insulin concentration profile.
Three hairless rats were given a 1 U/kg dose of insulin by way of subcutaneous administration. The concentration of insulin in the rats' blood serum was monitored. The average insulin blood serum concentration for the three rats was determined.
Five hairless rats were purchased from Charles River. Jugular vein cannulation was performed the day before the experiment to allow the animals recovering from the surgery.
The experiment was conducted as follows. The rats were anesthetized immediately before the skin treatment, which consisted of cleaning the abdomen side of the rat skin with an alcohol swab. The abdomen was allowed to air dry.
After the abdomen dried, the microporation system was placed longitudinally, and the bottom corners marked, on the cleaned skin site. The cleaned skin site was then microporated using the microporation system. Following microporation, the microporation system was removed and a liquid reservoir patch was placed on the microporated area. The patch was then filled with a 50 IU/ml dose of insulin and a time-zero sample was immediately taken. The remaining samples were taken according to the preset schedule.
After the sample at the 4th hour was taken, the rats were anesthetized to retrieve the donor solution from the liquid reservoir patch. Blood sampling continued until the 8th hour.
Afterward, the test was conducted again, however the patch applied was 2 cm^2 in area. Lastly, the test was performed for a third time, with the patch having a size of 3 cm^2.
Three hairless rats were prepared and tested in accordance with the procedure set forth in Test 1 above. However, for this test, a second generation planar microporation system was used to create the micropores in the abdomen of each rat. In addition, the transdermal patch contained a 50 IU/ml dose of insulin when applied to the microporated area of the skin of each rat.
This test was designed to determine any differences in the types of transdermal patches used to deliver insulin through the micropores. Five hairless rats were prepared and tested in accordance with the procedure set forth in Test 1 above. Following microporation of each rat, an early prototype liquid reservoir patch was applied to two of the rats, while a second generation transdermal patch was used to deliver insulin in the remaining three rats. Each patch contained a 50 IU/ml dose of insulin when applied to the microporated area of the skin of each rat.
A number of rats were prepared in accordance with the procedure set forth in Test 1 above. For those rats that had delivery openings formed on their abdomen, the delivery openings were formed using an early prototype microporation system. Insulin was delivered to the rats using a second generation delivery patch containing the desired concentration of insulin.
The delivery patch was applied to the rats' abdomen without microporation. The rats in this control group were given a […] concentration dose of insulin.
For the other rats in this test, the delivery patch contained insulin in concentrations of 10 IU/ml (6 rats), 25 IU/ml (6 rats), […] or 100 IU/ml (6 rats). The insulin serum concentration was monitored in each of the rats at various intervals of time. The average concentration of the rats for that particular insulin concentration (and whether delivery openings were formed or not) was determined and an insulin serum concentration profile was developed.

## insulin
50 IU/ml patch for 4 hours (5 rats) vs 1 U/kg subcutaneous (3 rats), FIG. 5
  average insulin serum concentration, transdermal through micropores versus subcutaneous: higher average concentration
50 IU/ml patch for 4 hours vs 1 U/kg subcutaneous, FIG. 5
  duration of higher average insulin serum concentration, transdermal versus subcutaneous: longer duration
50 IU/ml patch for 4 hours, FIG. 7
  insulin serum concentration, planar array microporation system versus step and repeat microporation system: slightly lower
50 IU/ml patch, 4 rats, FIG. 6
  average insulin serum concentration, change with patch size 1 cm^2 to 2 cm^2: roughly doubled
  average insulin serum concentration, change with patch size 2 cm^2 to 3 cm^2: roughly doubled
50 IU/ml patch, FIG. 8
  average insulin concentration, early prototype liquid reservoir patch versus second generation transdermal patch: very similar
microporated, 100 IU/ml patch, 6 rats, FIG. 9
  average insulin serum concentration, 100 IU/ml dose in comparison to other doses: very high
microporated, FIG. 9
  average insulin serum concentration, 50 IU/ml dose versus 25 IU/ml dose: not much difference
Patch on non-microporated abdomen, 3 rats, FIG. 9
  average insulin serum concentration, rats without delivery openings: very low
